# Data reported in patent publication US8241627B2, “Modified polypeptides stabilized in a desired conformation and methods for producing same” (The Center for Blood Research, Inc., priority 2000, dated 2012).
# Numbering of substitutions follows the chain as printed. Names and notes keep the numbering of the source.
# B1: L289C/K294C: low affinity closed αL I-domain mutant, cysteines for L289 and K294 (protein)
# chain: GNVDLVFLFDGSMSLQPDEFQKILDFMKDVMKKLSNTSYQFAAVQFSTSYKTEFDFSDYVKRKDPDALLKHVKHMLLLTNTFGAINYVATEVFREELGARPDATKVLIIITDGEATDSGNIDAAKDIIRYIIGIGKHFQTKESQETLHKFASKPASEFVKICDTFECLKDLFTELQKKIY
# B2: K287C: single cysteine substitution mutant of LFA-1 αL (protein, UniProt P20701 26-1170, looked up, variant K287C)
# Integrin alpha-L: YNLDVRGARSFSPPRAGRHFGYRVLQVGNGVIVGAPGEGNSTGSLYQCQSGTGHCLPVTLRGSNYTSKYLGMTLATDPTDGSILACDPGLSRTCDQNTYLSGLCYLFRQNLQGPMLQGRPGFQECIKGNVDLVFLFDGSMSLQPDEFQKILDFMKDVMKKLSNTSYQFAAVQFSTSYKTEFDFSDYVKRKDPDALLKHVKHMLLLTNTFGAINYVATEVFREELGARPDATKVLIIITDGEATDSGNIDAAKDIIRYIIGIGKHFQTKESQETLHKFASKPASEFVCILDTFEKLKDLFTELQKKIYVIEGTSKQDLTSFNMELSSSGISADLSRGHAVVGAVGAKDWAGGFLDLKADLQDDTFIGNEPLTPEVRAGYLGYTVTWLPSRQKTSLLASGAPRYQHMGRVLLFQEPQGGGHWSQVQTIHGTQIGSYFGGELCGVDVDQDGETELLLIGAPLFYGEQRGGRVFIYQRRQLGFEEVSELQGDPGYPLGRFGEAITALTDINGDGLVDVAVGAPLEEQGAVYIFNGRHGGLSPQPSQRIEGTQVLSGIQWFGRSIHGVKDLEGDGLADVAVGAESQMIVLSSRPVVDMVTLMSFSPAEIPVHEVECSYSTSNKMKEGVNITICFQIKSLIPQFQGRLVANLTYTLQLDGHRTRRRGLFPGGRHELRRNIAVTTSMSCTDFSFHFPVCVQDLISPINVSLNFSLWEEEGTPRDQRAQGKDIPPILRPSLHSETWEIPFEKNCGEDKKCEANLRVSFSPARSRALRLTAFASLSVELSLSNLEEDAYWVQLDLHFPPGLSFRKVEMLKPHSQIPVSCEELPEESRLLSRALSCNVSSPIFKAGHSVALQMMFNTLVNSSWGDSVELHANVTCNNEDSDLLEDNSATTIIPILYPINILIQDQEDSTLYVSFTPKGPKIHQVKHMYQVRIQPSIHDHNIPTLEAVVGVPQPPSEGPITHQWSVQMEPPVPCHYEDLERLPDAAEPCLPGALFRCPVVFRQEILVQVIGTLELVGEIEASSMFSLCSSLSISFNSSKHFHLYGSNASLAQVVMKVDVVYEKQMLYLYVLSGIGGLLLLLLIFIVLYKVGFFKRNLKEKMEAGRGVPNGIPAEDSEQLASGQEAGDPGCLKPLHEKDSESGGGKD
# B3: wild-type I-domain: wild-type αL I-domain, soluble recombinant or expressed on K562 surface via PDGFR transmembrane domain (protein)
# chain: B1 chain with C162L, C167K
# B4: E284C/E301C: high affinity open αL I-domain mutant, E284 and E301 replaced by cysteines (protein)
# chain: B1 chain with E157C, C162L, C167K, E174C
# B5: L161C/T300C: intermediate-affinity open αL I-domain mutant, cysteines for L161 and T300 (protein)
# chain: B1 chain with L34C, C162L, C167K, T173C
# B6: L161C/F299C: intermediate-affinity open αL I-domain mutant, cysteines for L161 and F299 (protein)
# chain: B1 chain with L34C, C162L, C167K, F172C
# B7: K160C/F299C: intermediate-affinity open αL I-domain mutant, cysteines for K160 and F299 (protein)
# chain: B1 chain with K33C, C162L, C167K, F172C
# Experiments:
# ICAM-1 [1] = biological target: T1, ICAM-1 (Homo sapiens, UniProt P05362); test: BIAcore binding of soluble αL I-domains to ICAM-1; details: for Kon, interaction of αL I-domains with ICAM-1: calculated by Koff/KD; for Koff, interaction of αL I-domains with ICAM-1: curve fitting of dissociation phase, 1:1 binding model
# Protocol: Briefly, recombinant mutant αL I-domain stabilized in the open conformation (K287C/K294C), or recombinant wild-type αL I-domain from amino acid residue G128 to Y307, were cloned into pET11b (Novagen) and expressed in E. coli induced with 1 mM IPTG for 4 hours. The recombinant proteins were purified from inclusion bodies by solubilization of inclusion bodies in 6M guanidine HCl and were refolded by dilution in the presence of 0.1 mM Cu^2+/phenanthrolin to enhance formation of disulfide bonds. Protein was concentrated by ammonium sulfate precipitation, dialyzed, and purified over a monoQ ion-exchange column. […] The recombinant proteins were then purified by gel filtration and concentrated by Centriprep. For BIAcore™ analysis, recombinant ICAM-1, ICAM-2 and ICAM-3 Fc chimeras were immobilized on the BIAcore™ sensor chip by an amine-coupling method. Recombinant αL I-domains were flowed in, and BIAcore™ assays were performed with Tris-buffered saline supplemented with 1 mM MgCl2 or 2 mM EDTA, at a flow rate of 10 μl/minute at 25° C.
# Target sequence in this assay (P05362 28-480 limits assumed): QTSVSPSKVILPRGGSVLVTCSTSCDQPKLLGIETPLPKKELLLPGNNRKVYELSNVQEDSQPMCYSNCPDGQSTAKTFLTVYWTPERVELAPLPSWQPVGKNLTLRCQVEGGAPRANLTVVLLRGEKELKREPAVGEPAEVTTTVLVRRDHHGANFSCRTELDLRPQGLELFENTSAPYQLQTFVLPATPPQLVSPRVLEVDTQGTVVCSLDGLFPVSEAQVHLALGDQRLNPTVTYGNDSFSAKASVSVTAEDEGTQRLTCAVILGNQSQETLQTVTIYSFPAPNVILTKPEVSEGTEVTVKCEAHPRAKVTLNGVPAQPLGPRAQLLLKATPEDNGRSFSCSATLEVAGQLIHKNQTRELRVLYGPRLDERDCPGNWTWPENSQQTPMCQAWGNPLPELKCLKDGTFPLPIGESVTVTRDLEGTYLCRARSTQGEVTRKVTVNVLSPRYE
# ICAM-1 [2] = biological target: T1, ICAM-1; test: Binding of LFA-1 or isolated I-domain transfectants to immobilized ICAM-1; format: cell-based; design: ICAM-1 was purified from human tonsil; from tissue; host or cells: human tonsil; details: for binding of 293T transient transfectants to immobilized ICAM-1 with activating mAb CBRLFA-1/2: CBRLFA-1/2 10 μg/ml; for binding of 293T transient transfectants to immobilized ICAM-1: no activating antibody; for binding of K562 cells expressing isolated I-domains to immobilized ICAM-1: I-domain on cell surface via PDGFR transmembrane domain; for effect of Mn2+ or Mg2+ on ligand binding of isolated I-domains: K562, 1 mM Mn2+ or Mg2+; for effect of DTT treatment on binding to ICAM-1: K562 transfectants, DTT 10 mM in L15/FBS
# Protocol: Clones of the transfectants that expressed similar levels of cell surface LFA-1, as determined by flow cytometry using monoclonal antibody TS2/4 (FIG. 3B), were tested for their ability to bind to immobilized ICAM-1, as previously described (Lu, C and Springer, T A (1997) J Immunol 159:268-278).
# Briefly, ICAM-1 was purified from human tonsil, and coated to 96-well plates as described previously (Lu, C and Springer T A, (1997) J Immunol 159:268-278). Cells were labeled with a florescence dye 2′,7′-bis-(carboxyethyl)-5(and-6)-carboxyfluorescein, acetoxymethyl ester (BCECF-AM), and resuspended to 1×10^6/ml in L15/FBS. 50 μl cell suspension was mixed in ICAM-1 coated wells with an equal volume of L15/FBS in the absence or presence of monoclonal antibody (CBRLFA-1/2, 10 μg/ml). Monoclonal antibodies were used at final concentration of 1:20 hybridoma supernatant, 1:200 ascites, or μg/ml purified IgG. For testing the effect of divalent cations, BCECF-AM-labeled cells were washed 2× with TS buffer, pH7.5 (20 mM Tris, pH 7.5, 150 mMNaCl) containing 5 mM EDTA, followed by 2 washes with TS buffer, pH7.5. Cells were then resuspended to 5×10^5/ml in the TS buffer, pH7.5 supplemented with 1 mM MgCl2/CaCl2, MgCl2, MnCl2 mM EDTA, and 100 μl cell suspension was added to ICAM-1 coated wells. After incubation at 37° C. for 30 minutes, unbound cells were washed off on a Microplate Autowasher (Bio-Tek Instruments, Winooski, Vt.). The fluorescence content of total input cells and the bound cells in each well was quantitated on a Fluorescent Concentration Analyzer (IDEXX, Westbrook, Me.). The bound cells were expressed as a percentage of total input cells per sample well.
# For generating stable K562 transfectants that express the I-domain on the surface, 20 μg of SspI-linearized pcDNA3.1/Hygro(+) containing the sequences encoding the I domain and the PDGFR transmembrane domain was used to transfect K562 cells by electroporation as described above. Transfectants were selected for resistance to 100 μg/ml hygromycin B, and were further subcloned by cell sorting and limiting dilution; clones that expressed similar levels of surface wild-type and mutant I domain-PDGFR were selected for functional studies. Stable cell lines were maintained in RPMI medium 1640 supplemented with 10% FBS and 100 μg/ml hygromycin B. Cell surface expression of the isolated I-domains was determined by flow cytometry using antibody TS1/22 to the I-domain (FIG. 7). Two clones from each transfectant were selected and tested for binding to immobilized ICAM-1, and similar results were obtained with each of the two clones (FIG. 8A).
# If the constitutive ligand binding activity of mutant K287C/K294C is due to the formation of a disulfide bond between the introduced C287 and C294, disruption of the disulfide bond with a reducing agent would abolish ligand binding ability of the mutant. Accordingly, the transfectants were treated with the reducing agent DTT (10 mM) in L15/FBS containing Mg^2+ and Ca^2+, and the ability of transfectants to bind to ICAM-1 was assessed.
# Furthermore, the effect of divalent cations on ligand binding of the isolated I-domains expressed on the surface of K562 transfectants was tested. The binding reactions were performed in HEPES/NaCl/glucose (20 mM HEPES, pH 7.5, 140 mM NaCl, 2 mg/ml glucose) supplemented with 1 mM […], 1 mM Mg^2+, or 1 mM EDTA.
# Target sequence in this assay (P05362 28-532): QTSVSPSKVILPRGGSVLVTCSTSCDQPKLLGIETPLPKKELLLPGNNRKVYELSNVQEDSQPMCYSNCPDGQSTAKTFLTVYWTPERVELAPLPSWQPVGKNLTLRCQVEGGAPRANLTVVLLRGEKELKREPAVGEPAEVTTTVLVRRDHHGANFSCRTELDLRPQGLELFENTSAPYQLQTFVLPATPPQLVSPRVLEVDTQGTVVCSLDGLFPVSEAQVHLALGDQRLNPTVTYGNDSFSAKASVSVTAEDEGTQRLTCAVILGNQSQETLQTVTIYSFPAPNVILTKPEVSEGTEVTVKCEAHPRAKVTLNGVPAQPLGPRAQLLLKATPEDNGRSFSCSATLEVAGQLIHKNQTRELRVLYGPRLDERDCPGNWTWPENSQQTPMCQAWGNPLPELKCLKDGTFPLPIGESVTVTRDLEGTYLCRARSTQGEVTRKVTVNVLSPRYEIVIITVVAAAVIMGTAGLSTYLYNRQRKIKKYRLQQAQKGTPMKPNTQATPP
# [3] = test system: T-lymphocytes in peripheral lymph node high endothelial venules; test: Intravital microscopy of lymphocyte behaviour in peripheral lymph node high endothelial venules; format: in vivo; details: mouse
# Protocol: Moreover, the ability of the open I-domain mutants to inhibit LFA-1 function in vivo was tested by visualizing microcirculation in the peripheral lymph node (LN) with intravital microscopy. Briefly, a small bolus (20-50 µl) of LN cell suspensions from […] mice were retrogradely injected through a femoral artery catheter and visualized in the subiliac LN by fluorescent epi-illumination from a video-triggered xenon arc stroboscope. After recording control […] cell behavior in the absence of 1-domain, the mouse was pretreated by intra-arterial injection of 1-domain (10 µg/g of weight) 5 minutes before T^GFP cell injection. All scenes were recorded on videotape and off-line analysis was done. The rolling fraction was calculated as percentage of rolling cells amount the total number of TGFβ cells that entered a venule. The sticking (firm adhesion) fraction was determined as the percentage of T^GFP cells becoming firmly adherent for >20 seconds in the number of T^GFP cells that rolled in a venule. Results were semi-quantitatively scored as follows: −: 0%, .+−.: 0-5%, +: 5-20%, ++: 20-40%, +++: 40-60%, ++++: 60-80%, +++++:80-100%.
molecule,measurement,setting,value
B1,"Kon, interaction of αL I-domains with ICAM-1",ICAM-1 [1],2110 M⁻¹ s⁻¹
same,"Koff, interaction of αL I-domains with ICAM-1",ICAM-1 [1],2.84 s⁻¹
same,binding of 293T transient transfectants to immobilized ICAM-1 with activating mAb CBRLFA-1/2,ICAM-1 [2],not able to activate binding
same,binding of 293T transient transfectants to immobilized ICAM-1,ICAM-1 [2],did not bind
same,binding of K562 cells expressing isolated I-domains to immobilized ICAM-1,ICAM-1 [2],did not bind
same,effect of Mn2+ or Mg2+ on ligand binding of isolated I-domains,ICAM-1 [2],did not activate ligand binding
same,binding of K562 stable transfectants to immobilized ICAM-1 with activating mAb CBRLFA-1/2,"ICAM-1 [2]; K562, CBRLFA-1/2 10 μg/ml",did not binding to ICAM-1
same,effect of Mn2+ and Mg2+ on binding of K562 transfectants to ICAM-1,"ICAM-1 [2]; K562, intact LFA-1, Mn2+ / Mg2+",did not increase binding
same,binding of K562 stable transfectants to immobilized ICAM-1,"ICAM-1 [2]; K562, no activating antibody",did not binding to ICAM-1
same,effect of DTT treatment on binding to ICAM-1,ICAM-1 [2],did not affect binding
B2,binding of 293T transient transfectants to immobilized ICAM-1 with activating mAb CBRLFA-1/2,ICAM-1 [2],increased
same,binding of 293T transient transfectants to immobilized ICAM-1,ICAM-1 [2],reduced binding
B3,Fraction transmigration,[3]; intra-arterial I-domain 10 μg/g,± (.+−.: 0-5%)
same,Fraction Rolling,[3]; intra-arterial I-domain 10 μg/g 5 minutes before T-GFP cell injection,+++ (+++: 40-60%)
same,Fraction firm adhesion,"[3]; intra-arterial I-domain 10 μg/g, adherent >20 seconds",++ (++: 20-40%)
same,Kd,"ICAM-1 [1]; Scatchard plots using data at steady states, read-out: KD, interaction of αL I-domains with ICAM-1",1350 µM
same,"Kon, interaction of αL I-domains with ICAM-1",ICAM-1 [1],2220 M⁻¹ s⁻¹
same,"Koff, interaction of αL I-domains with ICAM-1",ICAM-1 [1],3.00 s⁻¹
same,binding of K562 cells expressing isolated I-domains to immobilized ICAM-1,ICAM-1 [2],did not bind
same,effect of Mn2+ or Mg2+ on ligand binding of isolated I-domains,ICAM-1 [2],did not activate ligand binding
same,effect of DTT treatment on binding to ICAM-1,ICAM-1 [2],did not affect binding
B4,affinity compared with high-affinity open αL I-domain K287C/K294C (times lower),"ICAM-1 [1]; ICAM-1, soluble I-domains",nearly comparable
same,"Kon, interaction of αL I-domains with ICAM-1",ICAM-1 [1],128000 M⁻¹ s⁻¹
same,"Koff, interaction of αL I-domains with ICAM-1",ICAM-1 [1],0.0459 s⁻¹
B5,"Kon, interaction of αL I-domains with ICAM-1",ICAM-1 [1],135000 M⁻¹ s⁻¹
same,"Koff, interaction of αL I-domains with ICAM-1",ICAM-1 [1],0.65 s⁻¹
B6,"Kon, interaction of αL I-domains with ICAM-1",ICAM-1 [1],136000 M⁻¹ s⁻¹
same,"Koff, interaction of αL I-domains with ICAM-1",ICAM-1 [1],0.513 s⁻¹
B7,"Kon, interaction of αL I-domains with ICAM-1",ICAM-1 [1],153000 M⁻¹ s⁻¹
same,"Koff, interaction of αL I-domains with ICAM-1",ICAM-1 [1],0.67 s⁻¹
